Measured values published in the supplement of paper PMC9732359.
± gives the uncertainty stated by the source.

Experiment: protein stability index of a GFP-peptide fusion (yeast GPS) (PSI 1-4); higher = more stable; sorted into four equal gates, so the index is relative within each strain
In short: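 Yeast carrying a pooled library were grown to mid-log phase in leucine-free medium. Each library plasmid expresses Cherry and has a tiled 17-residue yeast protein peptide fused downstream of GFP. Cells were sorted into four equal gates by GFP/Cherry ratio, and plasmids from each gate were PCR-amplified, Illumina-sequenced and assigned to strains by barcode. Summing, across gates, the read frequency times the gate number gave each peptide's protein stability index.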

| Sequence | protein stability index (doa10∆) | protein stability index (pdr5∆) | protein stability index (san1∆) | protein stability index (ubr1∆) |
| --- | --- | --- | --- | --- |
| NRWHSESWANQLTVCGA [FAS2] | 1.93 ± 0.04 | 1.87 ± 0.053 | 1.8 ± 0.086 | 1.86 ± 0.042 |
| AGDLRALDTVTNVLNFI [FAS1] | 3.04 ± 0.1 | 3.22 ± 0.14 | 2.95 ± 0.11 | 2.54 ± 0.24 |
| ELEHLTKKSKLESTKAE [DSN1] | 3.37 ± 0.1 | 3.08 ± 0.081 | 3.32 ± 0.095 | 3.13 ± 0.063 |
| NNDDNGNNNNNNSGNDN [MED2] | 2.93 ± 0.043 | 2.99 ± 0.04 | 3.01 ± 0.034 | 3.05 ± 0.041 |
| DKKVLVKVQPEGKYIVD [RPT6] | 3.23 ± 0.081 | 3.28 ± 0.088 | 3.23 ± 0.036 | 2.96 ± 0.062 |
| SLFGSIGDDGYDLLIST [SRB5] | 2.17 ± 0.087 | 2.07 ± 0.14 | 3.05 ± 0.071 | 3.5 ± 0.11 |
| TYGISVVDVALKYPELS [NUT1] | 2.04 ± 0.057 | 2.42 ± 0.075 | 2.04 ± 0.078 | 2.6 ± 0.041 |
| QSGSNSGNNSKKRKNKS [ROX3] | 2.96 ± 0.17 | 3.09 ± 0.097 | 3.02 ± 0.095 | 3.15 ± 0.066 |
| DDFEVNVASLVRVQFQF [GRR1] | 2.57 ± 0.059 | 1.77 ± 0.089 | 1.78 ± 0.18 | 1.5 ± 0.089 |
| GCGNTQPTIRKDGLKLV [RPO21] | 2.42 ± 0.084 | 2.11 ± 0.056 | 2.3 ± 0.17 | 2.41 ± 0.045 |
| EDEGTLNVAEIITSGRD [ARP9] | 3.27 ± 0.22 | 3.21 ± 0.15 | 3.24 ± 0.079 | 3.29 ± 0.15 |
| MTMNGIPVKLLNEAQGH [SMD3] | 3.2 ± 0.12 | 3.39 ± 0.16 | 2.76 ± 0.091 | 3.1 ± 0.11 |
| FYERLDKSTTQLRKEIQ [MED11] | 2.61 ± 0.063 | 2.82 ± 0.081 | 2.47 ± 0.064 | 2.9 ± 0.072 |
| KPLTENCKKKKKRKKKN [RMP1] | 2.97 ± 0.19 | 1.89 ± 0.28 | 1.5 ± 0.14 | 3.38 ± 0.19 |
| HQSLGPDGLGEVGMKVQ [RET1] | 2.7 ± 0.16 | – | – | – |
| IRGIVKQIVHDSGRGAP [RPL2A] | 1.76 ± 0.07 | 1.88 ± 0.065 | 2.79 ± 0.047 | 2.12 ± 0.07 |
| GGDGRDYKGAKLNVVGW [RRI1] | 3.15 ± 0.15 | 3.15 ± 0.15 | 2.56 ± 0.12 | 3.23 ± 0.084 |
| TQDVFLKDFNTERVVEI [FAS2] | 3.116 ± 0.026 | 3.205 ± 0.023 | 3.211 ± 0.021 | 3.093 ± 0.019 |
| GRILKWLWPLCRGELKA [CDC53] | 1.58 ± 0.095 | 1.64 ± 0.06 | 1.32 ± 0.11 | 1.13 ± 0.045 |
| RYQHLEKITQISLLCKN [PCI8] | 1.23 ± 0.066 | 1.5 ± 0.051 | 1.25 ± 0.11 | 1.22 ± 0.048 |
| VFIRHRTPHEIQEANSV [RIP1] | – | 2.24 ± 0.28 | – | 1.69 ± 0.17 |
| QIVKYARKGLTPSQIGV [RPS13] | 3.12 ± 0.068 | 2.97 ± 0.086 | 2.47 ± 0.082 | 2.83 ± 0.086 |
| KKIRFLQLIIFLRTQFL [RGR1] | 1.53 ± 0.057 | 1.27 ± 0.041 | 1.19 ± 0.15 | 1.21 ± 0.073 |
| KKRAPRAVKEIKKFAKL [RPL31A] | – | 3.15 ± 0.21 | 2.86 ± 0.16 | – |
| VVRAASSLASQDVDFYK [RRP6] | 2.13 ± 0.066 | 2.04 ± 0.057 | 3.06 ± 0.16 | 1.48 ± 0.089 |
| GFANSLTFILGQLLSVK [YML031W/NDC1] | 1.13 ± 0.13 | 1.46 ± 0.18 | 1.2 ± 0.22 | 1.26 ± 0.12 |
| YNRRQDKKNKRLKFGHR [SNF2] | 3.01 ± 0.092 | 3.14 ± 0.09 | 3.22 ± 0.093 | 3.09 ± 0.095 |
